The test system of the data set is MS2 coat protein. Briefly: apparent KD of MS2 coat protein; designed switch direction (-1 OFF switch, 1 ON switch): -1; higher = weaker reporter binding. In outline: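 Designed RNA switches were transcribed on Illumina chips by stalled E. coli RNA polymerase and titrated with SNAP-549-labelled MS2 coat protein from 0.7 or 1.5 nM, doubling to 3 µM. Step length ran from 0.8–1.5 h at the lowest concentration to 10–20 min at the highest. The apparent KD is the median over clusters for each design, from curve-fitted normalised cluster fluorescence.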

Setting [1] is: input ligand: microRNA oligo, concentration not stated.
Where [2] appears, read: Eterna round: R95, input ligand: microRNA oligo, concentration not stated.
Setting [3] is: Eterna round: R95, input ligand: FMN 200 uM.
The mark [4] stands for this setting: Eterna round: R95, input ligand: none.

Regarding “CUUAUGUGAGGAUAUGCCUGGCCGUGAGGCCAAAUUGAUAAGCAGAAGGCACAUGAGGAUCACCCAUGUGCGGG [jl-ex4-4.68 ViennaUCT mod] (Eterna round: R97, puzzle: Exclusion 4)”, the “apparent KD of MS2 coat protein” value turned out to be 112 nM (input ligand: FMN 200 uM) and 241 nM (input ligand: none).

For the sequence “CUUCAGUCAGGAUAUCAUGAGCUCUGCCGACACGGGCUCGCUGAGAAGGGACAUGAGGAUCACCCAUGUAGACC [EX4 C.20] (Eterna round: R97, puzzle: Exclusion 4)”, the “apparent KD of MS2 coat protein” value worked out at 132 nM (input ligand: FMN 200 uM) and 34.1 nM (input ligand: none).

With “CUUCAUUGUUGAGGAUAUAAUUAUAGGAUGUAGUUAGAAGGCGAACAUGAGGAUCACCCAUGUCAGGCAUGGAGACCCUUGACC [Eternabot solution 8] (Eterna round: R96, puzzle: Exclusion NG 1)”, the “apparent KD of MS2 coat protein” value under setting [1] amounted to 308 nM.

As for “CUUCCACGGAUUGUAUUAAACAUGAGGAUCACCCAUGUCCGGGAUUUAAAACAAGCCCUUUGCUCAGUCCUUAUUGC [Eternabot (L1) Solution 10] (Eterna round: R97, puzzle: Sensor, turn-off variant 1)”, the “apparent KD of MS2 coat protein” value (input ligand: FMN 200 uM) amounted to 22.2 nM and the “apparent KD of MS2 coat protein” value (input ligand: none) was 25.9 nM.

With “CUUCGACAUGAGGAUCACCCAUGUCAGGAUAUUGUUUAUCUGGUUUUUUACAGAUAUGCAAGAAGGGAUGUGUU [LRO-Excl1-03] (puzzle: Exclusion 1)”, under setting [2], the “apparent KD of MS2 coat protein” value amounted to 26.5 nM.

For “CUUCUGUGAGGAUAUGUGAACCCGUGCCGAAAGGAUGGGAAACAGAAGGCACAUGAGGAUCACCCAUGUAAAAU [Isergeat] (puzzle: Exclusion 4)”, the “apparent KD of MS2 coat protein” value under setting [2] was 29.1 nM.

For the sequence “CUUGAAUAAGUGAGGAUAUACUGUUAGUAAUGAUUGUAGAAGGUACAUGAGGAUCACCCAUGUUUAUUCUUUAU [JR_BME4_Sub040] (puzzle: Brourd's mod of Exclusion 4)”, the “apparent KD of MS2 coat protein” value under setting [2] was 14.5 nM.

“CUUGCAUUGCGAGGAUAUCCAACGUGGCUCGUGCUUACAUGAGGAUCACCCAUGUUCUACUAAAAGGAGAAGGCGCUUGGAGGA [Endixexebe] (Eterna round: R96, puzzle: Exclusion NG 2)”: the “apparent KD of MS2 coat protein” value runs as follows: (input ligand: FMN 200 uM) 48.8 nM; under setting [1], 16.8 nM; (input ligand: none) 25.5 nM.

Turning to “CUUGGAGAGGUAGGAUAUUUAUAUUCACACUCUGAUUCUUGUACACAUGAGGAUCACCCAUGUAUAGAGAAGGACUGCCAAGAG [Eternabot solution 48] (Eterna round: R96, puzzle: Exclusion NG 2)”, the “apparent KD of MS2 coat protein” value runs as follows: (input ligand: FMN 200 uM) 21.6 nM; under setting [1], 17.2 nM; (input ligand: none) 21.3 nM.

For the sequence “CUUUACAAGCUAAGAUCCUACAUGAGGAUCACCCAUGUGGUCCGGUGACGUGAGUCACCGGACUUAGCUCGUCUUGU [salish99_S_TOV1_R5_096] (Eterna round: R97, puzzle: Sensor, turn-off variant 1)”, the “apparent KD of MS2 coat protein” value by setting is: (input ligand: FMN 200 uM) 41.5 nM; (input ligand: none) 42.6 nM.

Regarding “CUUUACAUGCUGAGAUCCUACAUGAGGAUCACCCAUGUGGUCCGGUGACGUGAGUCACCGGACUUAGCUCGUCUUGU [salish99_S_TOV1_R5_098] (Eterna round: R97, puzzle: Sensor, turn-off variant 1)”, the “apparent KD of MS2 coat protein” value is, setting by setting: (input ligand: FMN 200 uM) 169 nM; (input ligand: none) 336 nM.

For the sequence “CUUUAGUGAGGAUAUCAGUAGUAAUACAAUAGUAUUACUGCUGAGAAGGCACAUGAGGAUCACCCAUGUUCCUC [Mat - Exclusion 4 - Mod of Omei - D83] (puzzle: Exclusion 4)”, the “apparent KD of MS2 coat protein” value under setting [2] came to 33.1 nM.

Consider “CUUUGAUGAGGAUAUCGAGGUUAGUACAUGAGGAUCACCCAUGUUAUCCAGGUGUCGGAUCGAGAAGGUAUUGGAC [LRO-Ex5-18] (puzzle: Exclusion 5)”, for which the “apparent KD of MS2 coat protein” value under setting [2] worked out at 14.8 nM.

Consider “CUUUGCACGCUGCGGUCCUACAUGAGGAUCACCCAUGUGGUCUGGUGGCGUGGGUCGCCGGACUUGGCUCGUCUUGA [salish99_S_TOV1_R5_040] (Eterna round: R97, puzzle: Sensor, turn-off variant 1)”, for which the “apparent KD of MS2 coat protein” value by setting is: (input ligand: FMN 200 uM) 18.5 nM; (input ligand: none) 18.4 nM.

With “CUUUGGGCAGGAUAUGCUGUUUGUGACAUGAGGAUCACCCAUGUGAUGCAGUUUGGGUGUGCAGAAGGGCCUGAGA [JR_E5_Sub030] (puzzle: Exclusion 5)”, the “apparent KD of MS2 coat protein” value stood at 115 nM under setting [3], 72.6 nM under setting [2] and 110 nM under setting [4].

For “CUUUUAAAUGUGAGGAUAUACUGUUAUUAAAGUUAGUAGAAGGUACAUGAGGAUCACCCAUGUUAAUUACUCUA [JR_BME4_Sub048] (puzzle: Brourd's mod of Exclusion 4)”, the “apparent KD of MS2 coat protein” value runs as follows: under setting [3], 15.1 nM; under setting [2], 12.5 nM; under setting [4], 12.6 nM.

As to “CUUUUGCAACAAGCCAAUAACAUGAGGAUCACCCAUGUCCUGUUGAGGUCUUCCGUCGUUCUUGCUCACGUCUUACG [Eternabot (L1) Solution 50] (Eterna round: R97, puzzle: Sensor, turn-off variant 1)”, the “apparent KD of MS2 coat protein” value came out at 54.8 nM (input ligand: FMN 200 uM) and 56.3 nM (input ligand: none).

Consider “CUUUUGUGAGGAUAUCAGUAGUAAAUAAAUAAAAUAACUACUGAGAAGGCACAUGAGGAUCACCCAUGUUCCUC [Mat - Exclusion 4 - Mod of Salish - D69] (puzzle: Exclusion 4)”, for which, under setting [2], the “apparent KD of MS2 coat protein” value came out at 38.6 nM.

Turning to “CUUUUGUGAGGAUAUCAGUAGUAAUACAAUAGUAUUACUGCUGAGAAGGCACAUGAGGAUCACCCAUGUUCCUC [Ex4 344 Omei mod 10] (puzzle: Exclusion 4)”, the “apparent KD of MS2 coat protein” value under setting [2] came to 53.6 nM.

As to “CUUUUGUGAGGAUAUCAGUAGUAAUUAAAUAAAAUUACUACUGAGAAGGCACAUGAGGAUCACCCAUGUUCCUC [salish99_ex3_r3_077] (puzzle: Exclusion 4)”, under setting [2], the “apparent KD of MS2 coat protein” value was found to be 39.5 nM.

“CUUUUGUGAGGAUAUCAGUAGUAGAACAAUAGUACUACUACUGAGAAGGCACAUGAGGAUCACCCAUGUUCCUC [Fiskers Ex 4 Super stable 44 mod 2] (puzzle: Exclusion 4)”: the “apparent KD of MS2 coat protein” value under setting [2] came to 52.3 nM.

Turning to “CUUUUGUGAGGAUAUCAGUAGUAGAACAAUAGUACUACUACUGAGAAGGCACAUGAGGAUCACCCAUGUUCCUU [Fiskers Ex 4 Super stable 44 mod 6] (puzzle: Exclusion 4)”, the “apparent KD of MS2 coat protein” value under setting [2] came to 15.4 nM.

Turning to “CUUUUGUGAGGAUAUCAGUAGUUAAAUAAUAAAAUUACUACUGAGAAGGCACAUGAGGAUCACCCAUGUUCCUC [Mat - Exclusion 4 - Mod of Salish - D70] (Eterna round: R96, puzzle: Exclusion 4)”, the “apparent KD of MS2 coat protein” value reads like this: (input ligand: FMN 200 uM) 274 nM; under setting [1], 35.1 nM; (input ligand: none) 40 nM.

With “CUUUUGUGAGGAUAUCAGUAGUUAAAUAAUAAAAUUACUACUGAGAAGGCACAUGAGGAUCACCCAUGUUCCUC [Mat - Exclusion 4 - Mod of Salish - D70] (puzzle: Exclusion 4)”, the “apparent KD of MS2 coat protein” value under setting [2] turned out to be 35.5 nM.

As to “CUUUUGUGAGGAUAUCAGUUGUAAAAAAAUAAAAUUACUACUGAGAAGGCACAUGAGGAUCACCCAUGUUCCUC [salish99_ex4_r3_033] (puzzle: Exclusion 4)”, the “apparent KD of MS2 coat protein” value under setting [2] stood at 33.2 nM.

With “CUUUUGUGAGGAUAUUAGUAGUAAAUAAAUAAAAUUACUACUGAGAAGGCACAUGAGGAUCACCCAUGUUUCUC [salish99_ex4_r3_065] (Eterna round: R96, puzzle: Exclusion 4)”, the “apparent KD of MS2 coat protein” value turned out to be 278 nM (input ligand: FMN 200 uM), 31.2 nM under setting [1] and 35.5 nM (input ligand: none).

“CUUUUGUGAGGAUAUUAGUAGUAAAUAAAUAAAAUUACUACUGAGAAGGCACAUGAGGAUCACCCAUGUUUCUC [salish99_ex4_r3_065] (puzzle: Exclusion 4)”: the “apparent KD of MS2 coat protein” value under setting [2] was found to be 31.9 nM.

In the case of “CUUUUGUGAGGAUAUUAGUAGUAAAUAAAUAAAAUUUCUACUGAGAAGGCACAUGAGGAUCACCCAUGUUCCUC [salish99_ex4_r3_061] (Eterna round: R96, puzzle: Exclusion 4)”, the “apparent KD of MS2 coat protein” value runs as follows: (input ligand: FMN 200 uM) 347 nM; under setting [1], 34 nM; (input ligand: none) 33.9 nM.

“CUUUUGUGAGGAUAUUAGUAGUAAAUAAAUAAAAUUUCUACUGAGAAGGCACAUGAGGAUCACCCAUGUUCCUC [salish99_ex4_r3_061] (puzzle: Exclusion 4)”: the “apparent KD of MS2 coat protein” value under setting [2] stood at 33.2 nM.

Regarding “CUUUUGUGAGGAUAUUAGUAGUAAAUAAUUAAAAUUAUUACUGAGAAGGCACAUGAGGAUCACCCAUGUAACUC [JR_Ex4_Sub027] (Eterna round: R97, puzzle: Exclusion 4)”, the “apparent KD of MS2 coat protein” value is, setting by setting: (input ligand: FMN 200 uM) 400 nM; (input ligand: none) 49.9 nM.

With “CUUUUGUGAGGAUAUUAGUAGUAAAUAUAUAAAAUUACUACUGAGAAGGCACAUGAGGAUCACCCAUGUUCCUC [salish99_ex4_r3_055] (puzzle: Exclusion 4)”, under setting [2], the “apparent KD of MS2 coat protein” value came out at 36.2 nM.

Take “CUUUUGUGAGGAUAUUAGUAGUAUAUAAAUAAAAUUACUACUGAGAAGGCACAUGAGGAUCACCCAUGUUCCUC [salish99_ex4_r3_052] (puzzle: Exclusion 4)”: under setting [2], the “apparent KD of MS2 coat protein” value was 30.4 nM.

Consider “CUUUUGUGAGGAUAUUGGUAGUAAAUAAAUAAAAUUAUUACCGAGAAGGCACAUGAGGAUCACCCAUGUUCCUC [Salish 062 v17] (Eterna round: R97, puzzle: Exclusion 4)”, for which the “apparent KD of MS2 coat protein” value reads like this: (input ligand: FMN 200 uM) 823 nM; (input ligand: none) 50.7 nM.

“CUUUUGUUAGGAUAUUAGUAGUAAAUAAAUAAAAUUACUACUGAGAAGGCACAUGAGGAUCACCCAUGUUCCUC [salish99_ex4_r3_045] (puzzle: Exclusion 4)”: the “apparent KD of MS2 coat protein” value under setting [2] turned out to be 25.3 nM.
